Positions of bridges follow the written chain, without caps; N, C: chain ends. Residues, ends and D or L forms follow the SMILES beside them. No end group written: not given here. *: point of attachment. Biotin = O=C1N[C@H]2[C@H](CS[C@H]2CCCCC(=O)*)N1; Ahx = NCCCCCC(=O)O

To fix the notation:
T1: human p-selectin (Homo sapiens, UniProt P16109)
T1 sequence (P16109 42-830): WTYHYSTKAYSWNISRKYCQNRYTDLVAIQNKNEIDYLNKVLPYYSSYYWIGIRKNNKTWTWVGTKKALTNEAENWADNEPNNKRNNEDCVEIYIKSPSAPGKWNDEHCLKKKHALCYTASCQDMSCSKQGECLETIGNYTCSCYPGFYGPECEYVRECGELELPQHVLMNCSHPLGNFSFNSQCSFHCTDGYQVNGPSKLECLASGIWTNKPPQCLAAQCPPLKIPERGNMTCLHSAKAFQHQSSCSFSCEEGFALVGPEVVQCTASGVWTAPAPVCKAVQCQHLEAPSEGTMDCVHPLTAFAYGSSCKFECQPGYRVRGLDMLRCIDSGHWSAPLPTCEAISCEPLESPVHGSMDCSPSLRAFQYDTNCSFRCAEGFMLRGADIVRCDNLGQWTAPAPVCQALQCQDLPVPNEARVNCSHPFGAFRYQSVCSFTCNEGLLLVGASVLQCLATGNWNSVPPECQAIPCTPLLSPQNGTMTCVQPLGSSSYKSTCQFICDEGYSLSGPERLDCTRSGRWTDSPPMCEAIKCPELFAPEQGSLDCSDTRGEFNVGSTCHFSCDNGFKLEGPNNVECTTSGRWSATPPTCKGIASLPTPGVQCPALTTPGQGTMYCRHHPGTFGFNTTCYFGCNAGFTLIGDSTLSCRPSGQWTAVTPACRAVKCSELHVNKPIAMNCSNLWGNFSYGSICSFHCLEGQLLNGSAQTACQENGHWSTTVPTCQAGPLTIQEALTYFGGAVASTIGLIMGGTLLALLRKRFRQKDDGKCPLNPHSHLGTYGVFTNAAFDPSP

T2: chimeric human p-selectin (human, UniProt P16109 42-321)
T2 construct: also called human P-selectin-IgG
T2 sequence (looked up): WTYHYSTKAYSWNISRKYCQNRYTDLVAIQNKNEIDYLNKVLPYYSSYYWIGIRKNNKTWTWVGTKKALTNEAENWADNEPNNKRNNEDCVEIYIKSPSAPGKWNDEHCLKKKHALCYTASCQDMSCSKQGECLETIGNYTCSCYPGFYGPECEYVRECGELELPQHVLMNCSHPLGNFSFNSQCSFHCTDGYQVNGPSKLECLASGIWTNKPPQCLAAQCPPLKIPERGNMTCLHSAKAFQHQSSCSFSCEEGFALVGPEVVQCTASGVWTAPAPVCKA

B1: Biotin-TM16 (peptide)
peptide: {Biotin-Ahx}-CPDWVDVFKLVEGVMLC
modifications: cysteine pairing not given here
notes: Linear compounds were tested in the presence of DTT
B2: Biotin-A17 (peptide)
peptide: {Biotin-Ahx}-CDVEWVDVSC
modifications: cysteine pairing not given here
notes: Only TM11 is said to have been prepared in a cyclized form as well
B3: Biotin-TM2 (peptide)
peptide: {Biotin-Ahx}-CGWVDVIASGDTATLAC
modifications: cysteine pairing not given here
notes: as for B1
B4: Biotin-TM1 (peptide)
peptide: {Biotin-Ahx}-CPEFVDVEGDPGALLAC
modifications: cysteine pairing not given here
notes: as for B1

The first assay relates to human P-selectin-IgG. Nature of the assay: Binding of [3H]-cholesterol labeled sulfatide liposomes to human P-selectin-IgG. Conditions: liposomes carrying 22% of sulfatides, 2 hours at 4° C. The method, then:
Liposomes were prepared by sonication from egg yolk phosphatidylcholine, cholesterol, and sulfatides, all dissolved in chloroform/methanol (1:1, v/v), at weight ratios of 4:0.8:1.33. A tracer amount of [^3H]-cholesterol (1.3×10^8 dpm) was added, and the mixture was dried under a stream of nitrogen. The resulting lipid layer was vortexed in PBS and subsequently sonicated, resulting in liposomes with mean particle diameters of 59-62 nm.
Fc-specific goat anti-human IgG in coating buffer (50 mM NaHCO3, pH 9.6) was incubated in a high binding 96 well plate. The next day, wells were washed with assay buffer (20 mM HEPES, 150 mM NaCl, 1 mM CaCl2, pH 7.4) and incubated with blocking buffer (3% BSA in assay buffer). After washing, wells were incubated with human P-selectin-IgG, washed, and subsequently incubated with the [^3H]-cholesterol labeled liposomes in the presence or absence of the compounds below and antibodies for 2 hours at 4° C. After removal of unbound liposomes, bound liposomes were collected and counted using a scintillation counter.
Consider D V E W V D V A (DVEWVDVA) [A27], for which the “inhibition of the binding of sulfatides to P-selectin” value (from here on “inhibition … to P-selectin”) is “significantly inhibited”.

In the case of EWVDV [core motif peptide], the “inhibition … to P-selectin” value is reported as “did not”.

Turning to C D V E W V D V S C (CDVEWVDVSC) [A17], the “inhibition … to P-selectin” value is “significantly inhibited”.

Consider D V E W V D V S (DVEWVDVS) [A19], for which the “inhibition … to P-selectin” value was “significantly inhibited”.

For “DVEAVDVS [D V E A V D V S, reference compound]”, the “inhibition … to P-selectin” value was “did not”.

In the next assay the test system is Human platelets. Kind of assay: Inhibition of platelet aggregation. The assay is classed as cell-based. As to conditions: human platelets activated by ADV. The method, then:
Human platelets were activated by ADV, and the extent of platelet aggregation was measured in the presence or absence of EWVDV (SEQ ID No: 19)-containing peptides.
Regarding C D V E W V D V S C (CDVEWVDVSC) [A17], the “aggregation reduced (second phase of platelet aggregation)” value is reported as about 25%.

Consider D V E W V D V S (DVEWVDVS) [A19], for which the “aggregation reduced (second phase of platelet aggregation)” value is listed as “about 45%”.

The target of the next assay is T1, human p-selectin. Kind of assay: Competition ELISA: displacement of TM11-strepPO complex from coated chimeric human P-selectin. The assay is classed as binding. As to conditions: competition with 2.5 nM TM11-strepPO, 1 hour at 4° C.; linear compounds in the presence of DTT; read-out: Affinity (affinity constant). The method, then: The affinity of the compounds to P-selectin was investigated by using an adapted ELISA method. Streptavidin-horseradishperoxidase (strepPO) was incubated with TM11-biotin in a 1 to 4 molar ratio for 2 hours at RT, hereby forming a tetrameric peptide strepPO-complex. For competition studies, microtiter wells were coated with chimeric human p-selectin as described for the isolation of p-selectin binding phage. Wells were then incubated with 2.5 nM TM11-strepPO complex in assay buffer for 1 hour at 4° C., in the presence of titered amounts of peptides to compete for binding to human p-selectin. Linear compounds were tested in the presence of DTT to prevent aggregate formation. After washing 6 times with assay buffer, the wells were incubated with 100 μl TMB/H2O2 for 15 min at RT. The reaction was stopped with 1 M H2SO4 and the absorbance read at 450 nm. From the results, the affinity constants were calculated: […]
Background: An ELISA detects its analyte on a solid surface through an enzyme-linked reagent.
As to `CC(C)[C@H](NC(=O)[C@H](CC(=O)O)NC(=O)[C@@H](NC(=O)[C@H](Cc1c[nH]c2ccccc12)NC(=O)[C@H](CCC(=O)O)NC(=O)[C@@H](NC(=O)[C@H](CC(=O)O)NC(=O)CCCCCNC(=O)CCCC[C@@H]1SC[C@@H]2NC(=O)N[C@@H]21)C(C)C)C(C)C)C(=O)N[C@@H](CO)C(=O)O` [Biotin-A19] ({Biotin-Ahx}-DVEWVDVS-OH), the IC50 is 12 µM.

In the case of `CC(C)C[C@@H]1NC(=O)[C@H](CO)NC(=O)[C@H](CO)NC(=O)[C@H](C(C)C)NC(=O)[C@H](CC(=O)O)NC(=O)[C@H](C(C)C)NC(=O)[C@H](Cc2c[nH]c3ccccc23)NC(=O)[C@H](CCC(=O)O)NC(=O)[C@H](C(C)C)NC(=O)[C@H](CC(=O)O)NC(=O)[C@@H](NC(=O)CCCCCNC(=O)CCCC[C@@H]2SC[C@@H]3NC(=O)N[C@@H]32)CSSC[C@@H](C(=O)O)NC(=O)[C@@H]2CCCN2C(=O)[C@H](CC(C)C)NC(=O)[C@H](CC(=O)O)NC(=O)[C@H](Cc2c[nH]c3ccccc23)NC(=O)[C@H](CCC(=O)O)NC1=O` [Biotin-TM11(cyclic)] ({Biotin-Ahx}-CDVEWVDVSSLEWDLPC-OH; disulfide 1-17), the IC50 worked out at 2 µM.

Regarding `CC(C)C[C@H](NC(=O)[C@H](CO)NC(=O)[C@H](CO)NC(=O)[C@@H](NC(=O)[C@H](CC(=O)O)NC(=O)[C@@H](NC(=O)[C@H](Cc1c[nH]c2ccccc12)NC(=O)[C@H](CCC(=O)O)NC(=O)[C@@H](NC(=O)[C@H](CC(=O)O)NC(=O)[C@H](CS)NC(=O)CCCCCNC(=O)CCCC[C@@H]1SC[C@@H]2NC(=O)N[C@@H]21)C(C)C)C(C)C)C(C)C)C(=O)N[C@@H](CCC(=O)O)C(=O)N[C@@H](Cc1c[nH]c2ccccc12)C(=O)N[C@@H](CC(=O)O)C(=O)N[C@@H](CC(C)C)C(=O)N1CCC[C@H]1C(=O)N[C@@H](CS)C(=O)O` [Biotin-TM11] ({Biotin-Ahx}-CDVEWVDVSSLEWDLPC-OH), the IC50 was determined as 2 µM.

The target in another assay is T2, chimeric human p-selectin. Nature of the assay: affinity to human P-selectin, prepared and tested as in example 1 (competition ELISA against TM11-strepPO complex); column head 'Affinity [µM]'.
Conditions: not given
The method, then: (§1) Linear compounds were tested in the presence of DTT to prevent aggregate formation. After washing 6 times with assay buffer, the wells were incubated with 100 μl TMB/H_2O_2 for 15 min at RT. The reaction was stopped with 1 M H_2SO_4 and the absorbance read at 450 nm. From the results, the affinity constants were calculated: […]
As for {Biotin-Ahx}-EWVKVA (Comparative compound), the IC50 came to 13000 µM.

For {Biotin-Ahx}-DVEAVDVS (Comparative compound), the IC50 was 400000 µM.

For the molecule {Biotin-Ahx}-DVEWADVS (Comparative compound), the IC50 was determined as 1400 µM.

Turning to {Biotin-Ahx}-DVEWVDAS (Comparative compound), the IC50 amounted to 13000 µM.

Take {Biotin-Ahx}-DVEWVAVS (Comparative compound): the IC50 turned out to be 21000 µM.

In a further assay the target is T2, chimeric human p-selectin. Kind of assay: competition ELISA; coated chimeric human P-selectin, competitor 2.5 nM TM11-strepPO complex; column head 'Affinity'.
Conditions: not given
The method, then:
as §1
The molecule {Biotin-Ahx}-VGLDPRDWVDVSDYA [Biotin-SH31] returned an IC50 of 19 µM.

Take B1: the IC50 amounted to 12 µM.

Turning to B2, the IC50 was found to be 0.1 µM.

For the molecule B3, the IC50 was determined as 49 µM.

As for B4, the IC50 came to 82 µM.

{Biotin-Ahx}-CDVEWVDVSSLEWDLPC (disulfide 1-17) [Biotin-TM11(cyclic)] displayed an IC50 of 2 µM.

For the origin of these results see patent US7531516B2, “Peptidic compounds selectively binding to P-selectin” (Astellas Pharma Europe B.V., priority 2001, dated 2009).
